Assay results as given in patent publication US20110123544A1 (published 2011).

T1: recombinant human interleukin 12 (p40/p35 heterodimer) (human, UniProt P29460 23-328; P29459 23-219)
T1 chain 1: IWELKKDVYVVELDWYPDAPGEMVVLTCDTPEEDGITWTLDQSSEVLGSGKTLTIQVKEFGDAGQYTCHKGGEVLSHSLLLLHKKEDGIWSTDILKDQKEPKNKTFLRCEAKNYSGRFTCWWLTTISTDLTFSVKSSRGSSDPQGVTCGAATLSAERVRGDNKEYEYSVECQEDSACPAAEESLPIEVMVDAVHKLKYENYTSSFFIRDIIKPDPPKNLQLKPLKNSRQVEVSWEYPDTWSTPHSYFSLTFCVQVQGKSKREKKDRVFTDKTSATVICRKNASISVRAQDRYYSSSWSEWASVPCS
T1 chain 2: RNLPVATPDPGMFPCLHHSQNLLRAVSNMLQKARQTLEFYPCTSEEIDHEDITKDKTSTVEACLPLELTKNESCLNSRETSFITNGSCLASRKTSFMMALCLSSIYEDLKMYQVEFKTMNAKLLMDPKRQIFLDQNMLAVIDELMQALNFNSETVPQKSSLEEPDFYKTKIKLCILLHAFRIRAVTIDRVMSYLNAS

B1: Y61 H30 T (peptide)
chain: FTFTSYGMH
B2: Y61 H30 G (peptide)
chain: FTFGSYGMH
B3: Y61 H33 N (peptide)
chain: FTFSSYNMH
B4: Y61 H30 W (peptide)
chain: FTFWSYGMH
B5: Y61 H30 I (peptide)
chain: FTFISYGMH
B6: Y61 H30 V (peptide)
chain: FTFVSYGMH
B7: Y61 H33 A (peptide)
chain: FTFSSYAMH
B8: Y61 H31 I (peptide)
chain: FTFSIYGMH
B9: Y61 H33 P (peptide)
chain: FTFSSYPMH
B10: Y61 H54 V (peptide)
chain: FIRYDVSNKYYADSVKG
B11: Y61 H50 T (peptide)
chain: TIRYDGSNKYYADSVKG
B12: Y61 H52 E (peptide)
chain: FIEYDGSNKYYADSVKG
B13: Y61 H50 E (peptide)
chain: EIRYDGSNKYYADSVKG
B14: Y61 H53 I (peptide)
chain: FIRYIGSNKYYADSVKG
B15: Y61 H50 Y (peptide)
chain: YIRYDGSNKYYADSVKG
B16: Y61 H52 Y (peptide)
chain: FIYYDGSNKYYADSVKG
B17: Y61 H53 L (peptide)
chain: FIRYLGSNKYYADSVKG
B18: Y61 H53 K (peptide)
chain: FIRYKGSNKYYADSVKG
B19: Y61 H54 D (peptide)
chain: FIRYDDSNKYYADSVKG
B20: Y61 H52 S (peptide)
chain: FISYDGSNKYYADSVKG
B21: Y61 H52 Q (peptide)
chain: FIQYDGSNKYYADSVKG
B22: Y61 H54 R (peptide)
chain: FIRYDRSNKYYADSVKG
B23: Y61 H54 T (peptide)
chain: FIRYDTSNKYYADSVKG
B24: Y61 H52 G (peptide)
chain: FIGYDGSNKYYADSVKG
B25: Y61 H52 V (peptide)
chain: FIVYDGSNKYYADSVKG
B26: Y61 H52 T (peptide)
chain: FITYDGSNKYYADSVKG
B27: Y61 H52 K (peptide)
chain: FIKYDGSNKYYADSVKG
B28: Y61 H52 H (peptide)
chain: FIHYDGSNKYYADSVKG
B29: Y61 H53 R (peptide)
chain: FIRYRGSNKYYADSVKG
B30: Y61 H52 W (peptide)
chain: FIWYDGSNKYYADSVKG
B31: Y61 H54 Y (peptide)
chain: FIRYDYSNKYYADSVKG
B32: Y61 H53 F (peptide)
chain: FIRYFGSNKYYADSVKG
B33: Y61 H50 H (peptide)
chain: HIRYDGSNKYYADSVKG
B34: Y61 H52 L (peptide)
chain: FILYDGSNKYYADSVKG
B35: Y61 H53 E (peptide)
chain: FIRYEGSNKYYADSVKG
B36: Y61 H50 L (peptide)
chain: LIRYDGSNKYYADSVKG
B37: Y61 H54 K (peptide)
chain: FIRYDKSNKYYADSVKG
B38: Y61 H50 Q (peptide)
chain: QIRYDGSNKYYADSVKG
B39: Y61 H54 Q (peptide)
chain: FIRYDQSNKYYADSVKG
B40: Y61 H53 N (peptide)
chain: FIRYNGSNKYYADSVKG
B41: Y61 H53 Q (peptide)
chain: FIRYQGSNKYYADSVKG
B42: Y61 H53 V (peptide)
chain: FIRYVGSNKYYADSVKG
B43: Y61 H54 S (peptide)
chain: FIRYDSSNKYYADSVKG
B44: Y61 H53 T (peptide)
chain: FIRYTGSNKYYADSVKG
B45: Y61 H54 N (peptide)
chain: FIRYDNSNKYYADSVKG
B46: Y61 H53 A (peptide)
chain: FIRYAGSNKYYADSVKG
B47: Y61 H53 S (peptide)
chain: FIRYSGSNKYYADSVKG
B48: Y61 H50 C (peptide)
chain: CIRYDGSNKYYADSVKG
B49: Y61 H53 Y (peptide)
chain: FIRYYGSNKYYADSVKG
B50: Y61 H50 N (peptide)
chain: NIRYDGSNKYYADSVKG
B51: Y61 H54 E (peptide)
chain: FIRYDESNKYYADSVKG
B52: Y61 H50 K (peptide)
chain: KIRYDGSNKYYADSVKG
B53: Y61 H52 A (peptide)
chain: FIAYDGSNKYYADSVKG

Biological target: T1, recombinant human interleukin 12 …
Assay: BIAcore

koff [s⁻¹] | Binder
0.00032 | B1
0.000233 | B2
0.000308 | B3
0.000216 | B4
0.000207 | B5
0.000399 | B6
0.000273 | B7
0.000334 | B8
0.0016 | B9

Biological target: T1, recombinant human interleukin 12 …
Assay: BIAcore
Remark: another data set of the same source

koff [s⁻¹] | Binder
0.000435 | B10
0.000205 | B11
0.000318 | B12
0.000347 | B13
0.000944 | B14
0.00023 | B15
0.000298 | B16
0.0011 | B17
0.00158 | B18
0.000455 | B19
0.000292 | B20
0.000285 | B21
2.5e-05 | B22
0.000644 | B23
0.000321 | B24
0.000317 | B25
0.000374 | B26
0.000262 | B27
0.000407 | B28
0.00167 | B29
0.000351 | B30
0.000646 | B31

koff [s⁻¹] | Binder
0.00169 | B32
0.000309 | B33
0.000347 | B34
0.000399 | B35
0.00044 | B36
0.000407 | B37
0.00042 | B38
0.000316 | B39
0.000727 | B40
0.000792 | B41
0.00044 | B42
0.000373 | B43
0.0005 | B44
0.000447 | B45
0.000404 | B46
0.000368 | B47
0.000285 | B48
0.000611 | B49
0.000344 | B50
0.000351 | B51
0.000612 | B52
0.000171 | B53
